Results from the supplement of paper PMC9233669.
Variants at the floor of the assay were thinned out.

Tests used:
biotinyl-Ile-oxazolone = assay: self-aminoacylation, catalytic enhancement (BIO) (fold over background); higher = more active; k-Seq, kA / k0A0; sequences stand for … in GGGAAUGGAUCCACAUCUACGAAUUC…UUCACUGCAGACUUGACGAAGCUG
Method in brief: (§1)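 Mutagenized RNA pools with a 21-nt variable region (0.43 μM) were reacted with each biotinyl-aminoacyl-oxazolone at 2–1250 μM for 90 minutes at room temperature, in 50 μL HEPES/NaCl/KCl/MgCl2/CaCl2 buffer containing 5% acetonitrile at pH 6.9–7.0. RNA captured on streptavidin was quantified by triplicate qPCR and by Illumina sequencing. The fraction reacted for each sequence was fit to a pseudo-first-order model with bootstrapping, and catalytic enhancement is the median kA divided by the uncatalyzed rate, taken as the low-activity peak of a bimodal Gaussian fit.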

biotinyl-Trp-oxazolone = assay: self-aminoacylation, catalytic enhancement (BWO) (fold over background); higher = more active; k-Seq, kA / k0A0; sequences stand for … in GGGAAUGGAUCCACAUCUACGAAUUC…UUCACUGCAGACUUGACGAAGCUG
Method in brief: as §1

biotinyl-Met-oxazolone = assay: self-aminoacylation, catalytic enhancement (BMO) (fold over background); higher = more active; k-Seq, kA / k0A0; sequences stand for … in GGGAAUGGAUCCACAUCUACGAAUUC…UUCACUGCAGACUUGACGAAGCUG
Method in brief: as §1

biotinyl-Phe-oxazolone = assay: self-aminoacylation, catalytic enhancement (BFO) (fold over background); higher = more active; k-Seq, kA / k0A0; sequences stand for … in GGGAAUGGAUCCACAUCUACGAAUUC…UUCACUGCAGACUUGACGAAGCUG
Method in brief: as §1

biotinyl-Leu-oxazolone = assay: self-aminoacylation, catalytic enhancement (BLO) (fold over background); higher = more active; k-Seq, kA / k0A0; sequences stand for … in GGGAAUGGAUCCACAUCUACGAAUUC…UUCACUGCAGACUUGACGAAGCUG
Method in brief: as §1

biotinyl-Val-oxazolone = assay: self-aminoacylation, catalytic enhancement (BVO) (fold over background); higher = more active; k-Seq, kA / k0A0; sequences stand for … in GGGAAUGGAUCCACAUCUACGAAUUC…UUCACUGCAGACUUGACGAAGCUG
Method in brief: as §1

Sequence | self-aminoacylation (biotinyl-Ile-oxazolone) | self-aminoacylation (biotinyl-Trp-oxazolone) | self-aminoacylation (biotinyl-Met-oxazolone) | self-aminoacylation (biotinyl-Phe-oxazolone) | self-aminoacylation (biotinyl-Leu-oxazolone) | self-aminoacylation (biotinyl-Val-oxazolone)
GAGUUUGCUUAUAGUCGCAAG [Fam3.1 aminoacylation ribozyme variant] | 1.65 | 1.75 | 1.44 | 2.28 | 1.24 | 1.39
CCGAACUUCAAGCAAUCGGUC [Fam1B.1 aminoacylation ribozyme variant] | 1.26 | 20.6 | 1.43 | 34.4 | 1.68 | 1.54
AUAACUCUGGUCAUCGAGUGA [Fam2.1 aminoacylation ribozyme variant] | 3.06 | 6.33 | 5.54 | 19.5 | 5.36 | 3.04
CUACUUCAAACCAUCGGCCUG [Fam1A.1 aminoacylation ribozyme variant] | 1.82 | 1.71 | 1.63 | 1.51 | 1.45 | 1.94
AUUCCCCUGGUCAUCGGGUGA [Fam2.1 aminoacylation ribozyme variant] | 7.79 | 15.6 | 14.1 | 106 | 14.4 | 8.68
AUUACCCUGGUCAUCCAGUGG [Fam2.1 aminoacylation ribozyme variant] | 1.22 | 1.28 | 1.84 | 1.42 | 1.68 | 1.3
AUUACCUUGGUCAACGAGUGA [Fam2.1 aminoacylation ribozyme variant] | 3.57 | 6.5 | 6.26 | 17.5 | 6 | 3.54
AUUACCAUAGUCAUCGAGUGA [Fam2.1 aminoacylation ribozyme variant] | 4.32 | 9.11 | 7.07 | 43.4 | 7.53 | 3.89
AUUCACCUAGGAUAUCGGGUG [Fam2.2 aminoacylation ribozyme variant] | 3.31 | 5.47 | 6.65 | 44.1 | 7.35 | 3.64
AUUUCCCUGGUCAUCGGGUGA [Fam2.1 aminoacylation ribozyme variant] | 10.1 | 23.9 | 18.5 | 90.8 | 21.5 | 11.6
AUUCGCCUUGGUCAUCGGGUG [Fam2.2 aminoacylation ribozyme variant] | 5 | 8.13 | 8.81 | 74.5 | 9.99 | 6.21
AGGACCCUGGUCAUCGAGUGA [Fam2.1 aminoacylation ribozyme variant] | 4.59 | 10.7 | 10.5 | 36.7 | 10.9 | 5.05
AACUUUGCUAAUUGUCGCAAG [Fam3.1 aminoacylation ribozyme variant] | 2.78 | 4.3 | 2.71 | 9.97 | 2.44 | 2.39
CCAUACUGCAAGCAAUCGGUC [Fam1B.1 aminoacylation ribozyme variant] | 1.14 | 0.938 | 1.15 | 1.06 | 0.996 | 1.14
AUUCACCCUGGUCAUCGGGUG [Fam2.2 aminoacylation ribozyme variant] | 5.16 | 10.6 | 10.6 | 71 | 11.5 | 5.5
CUACCUCAAACAAUCGGUUUG [Fam1A.1 aminoacylation ribozyme variant] | 0.904 | 1.56 | 0.938 | 2.48 | 0.715 | 1.16
CCACACUUAAAGCCAUCGGUC [Fam1B.1 aminoacylation ribozyme variant] | 0.992 | 1.06 | 0.801 | 0.617 | 0.913 | 1.11
AUUACCCUGGUCACCGAGUUA [Fam2.1 aminoacylation ribozyme variant] | 1.64 | 2.34 | 1.52 | 1.81 | 1.26 | 1.75
CUACUUCAUACAAUCGGUCAG [Fam1A.1 aminoacylation ribozyme variant] | 0.738 | 0.721 | 0.644 | 0.985 | 0.662 | 0.699
AAGUUUCCUAAUAGUAGCAAG [Fam3.1 aminoacylation ribozyme variant] | 1.28 | 0.808 | 1.17 | 1.11 | 1.12 | 1.05
AUUACCCUGGUCAACGAGUUA [Fam2.1 aminoacylation ribozyme variant] | 0.971 | 0.529 | 1.26 | 0.836 | 0.662 | 0.947
CUACUUCAAACAAUAGGACUG [Fam1A.1 aminoacylation ribozyme variant] | 0.633 | 0.515 | 0.6 | 0.544 | 0.585 | 0.625
CCACAGUUCAAGCCAUCGGUC [Fam1B.1 aminoacylation ribozyme variant] | 1.87 | 1.3 | 2.33 | 1.14 | 2.53 | 2.17
AUUCACCUGUGUCAUCGGGUG [Fam2.2 aminoacylation ribozyme variant] | 5.71 | 8.96 | 10.8 | 28.1 | 15.7 | 6.51
AUUCAACUAGGUCAUCGGGAG [Fam2.2 aminoacylation ribozyme variant] | 0.943 | 1.05 | 1.23 | 0.48 | 0.899 | 0.961
